Test results from patent US20260184814A1 (priority 2022, published 2026).

Assays:
[1] = system: BNA7 from B/Perth/211/2011
[2] = FIG. 50B; design: CLEARANCE (μg/ml): unit not given here
[3] = FIG. 32
[4] = biological target: N1 and N2 neuraminidases; format: biochemical, influenza A virus
[5] = system: N9 from A/Anhui/1/2013; format: binding
[6] = biological target: group I (H1N1) IAV, group II (H3N2) IAV, and IBV NAs; format: biochemical, influenza A virus, influenza B virus
[7] = biological target: IAV and IBV NA antigens; format: binding, influenza A virus, influenza B virus
[8] = system: pseudovirus-derived neuraminidase; format: biochemical, influenza A virus

Substance FNI9 has an IC50 [1] of 23.209 mg/mL.

In the case of FNI9-LS, the “AUC” value [2] is reported as 527.46 ± 75.92 µg·days/mL, the “CLEARANCE (μg/ml)” value [2] is reported as 1.47 ± 0.19 and the “HALF-LIFE” value [2] is reported as 13.37 ± 1.52 days. For the same substance, the “AUCLAST” value [3] was 254.583 µg·days/mL, the “CLss” value [3] was 1.944 mL/day and the “HALF-LIFE” value [3] was 14.198 days. For the same substance, the “LAMBDA_Z” value [3] was 0.05 day⁻¹ and the “Vz” value [3] was 40.281 mL.

In the case of “FNI9-v8.1: FNI9 variant with S28T in VH; VH SEQ ID NO:54, VL SEQ ID NO:8”, the “IC50 for inhibiting sialidase activity in a MUNANA assay” value [4] is reported as “lower IC50”, the “binding to N9_A_Anhui_2013, assessed by flow cytometry” value [5] is reported as “binds more strongly” and the “in vitro inhibition of sialidase activity (reported as IC50)” value [6] is reported as “improved”. For the same substance, the “affinity by surface plasmon resonance” value [7] was “higher affinity” and the “IC50 for inhibiting sialidase activity in an ELLA assay” value [8] was “lower IC50”.
